Measured values from patent publication US20230365703A1.

Legend:
[1] = target: GPC3 on liver cancer cells (HepG2, HuH-7) (UniProt P51654); assay: flow cytometry on HepG2 cells, Alexa Fluor 488 anti-human IgG; fit value of the flat control curve; unit inferred, unit taken from the axis Con.(nM)
[2] = target: IL12 receptors on H_IL12 Reporter 293 cells (UniProt P42701); assay: cell-based or functional assay
[3] = target: human CD47-Fc chimeric protein (human) (UniProt Q08722); assay: SPR (Biacore T200), human CD47-Fc captured on anti-human IgG (Fc) CM5 chip, analyte 50 nM, bivalent analyte model
[4] = target: CD47 on CD47-transfected CHO-K1 cells (Homo sapiens (Human)) (UniProt Q08722); assay: flow cytometry on CD47-transfected CHO-K1 cells (CD38-/CD47+), anti-human IgG-FITC detection

Sequence of IL12 receptors on H_IL12 Reporter 293 cells (Q99665 24-862 limits assumed, chain 2 of 2, other chains not shown): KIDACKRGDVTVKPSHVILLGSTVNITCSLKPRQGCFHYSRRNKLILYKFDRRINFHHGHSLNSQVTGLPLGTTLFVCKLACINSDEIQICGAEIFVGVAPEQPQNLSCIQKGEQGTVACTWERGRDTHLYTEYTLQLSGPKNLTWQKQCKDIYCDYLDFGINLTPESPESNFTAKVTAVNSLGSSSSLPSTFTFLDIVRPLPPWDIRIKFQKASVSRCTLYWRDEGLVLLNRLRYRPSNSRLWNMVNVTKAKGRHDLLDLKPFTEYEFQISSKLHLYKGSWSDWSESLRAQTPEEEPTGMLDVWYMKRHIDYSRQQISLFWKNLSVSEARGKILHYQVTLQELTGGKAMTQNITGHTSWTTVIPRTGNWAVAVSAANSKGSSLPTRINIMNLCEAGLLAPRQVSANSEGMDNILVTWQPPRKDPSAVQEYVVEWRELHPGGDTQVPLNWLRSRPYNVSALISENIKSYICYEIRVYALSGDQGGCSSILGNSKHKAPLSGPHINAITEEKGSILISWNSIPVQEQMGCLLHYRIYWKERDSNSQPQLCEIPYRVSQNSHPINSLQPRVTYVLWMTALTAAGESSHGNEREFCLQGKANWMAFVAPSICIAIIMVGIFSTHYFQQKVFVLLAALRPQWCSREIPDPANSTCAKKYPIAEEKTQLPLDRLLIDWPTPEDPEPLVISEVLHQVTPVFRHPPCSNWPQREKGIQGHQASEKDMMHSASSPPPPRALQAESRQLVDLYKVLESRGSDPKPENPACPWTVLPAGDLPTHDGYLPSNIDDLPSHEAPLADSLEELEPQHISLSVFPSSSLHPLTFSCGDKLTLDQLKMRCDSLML

Human IgG1 homotype control (Isotype) (antibody)
EC50 [1]: 3.4 nM

IL12A and IL12B complex (from UniProt P29459 23-219; P29460 24-328) (ligand)
EC50 on H IL12 Reporter 293 cells (One-Glo signal; called binding affinity by the filing) [2]: 0.06 nM

TTI-621 (Fc fusion)
Kd [3]: 37.3 nM
EC50 (read off the curve) [4]: 0.8 nM
